Measured values reported in patent publication US20230119290A1 (UNIVERSIT T ZU K LN, published 2023).

Legend:
[1] = target: sFlt-1 (soluble splice variant of VEGF receptor 1) in human serum (human) (UniProt P17948); test: cell-based or functional assay
[2] = target: sFlt-1 (soluble splice variant of VEGF receptor 1) in human serum (human) (UniProt P17948); test: adsorption of sFlt-1 from human serum on ligand column (agarose), sFlt-1 ELISA of flow through
[3] = target: sFlt-1 (soluble splice variant of VEGF receptor 1) in human serum (human) (UniProt P17948); test: adsorption of sFlt-1 from preeclampsia patient serum on agarose column, sFlt-1 ELISA before and after
[4] = target: sFlt-1 (soluble splice variant of VEGF receptor 1) in human serum (human) (UniProt P17948); test: single run of serum of 10 preeclampsia patients over scVEGF^165 column, sFlt-1 ELISA before and after
[5] = target: T1, VEGF-Trap (chimeric protein of VEGFR-1 domain 2 and VEGFR-2 domain 3 fused to Fc) (UniProt P17948 129-230; P35968 225-327); test: solid phase ELISA, VEGF/PIGF variant immobilised, VEGF-trap titrated 0.1 to 750 nM, Kd from saturation curve
T1 construct: also called VEGFR1/R2 trap; not shown: Fc segment
Experimental: ELISA style binding assays were performed as described previously (Agarwal et al., 2012). In brief, 10 µg/ml of recombinant VEGF, PIGF and their mutant variants were individually immobilized together with bovine serum albumin (BSA) on 96 well plate (Transparente Immuno Standardmodule, Thermo scientific, Denmark), while matrix loaded only with BSA served as a control. A binding saturation curve was generated by applying increasing concentrations of VEGFR1/R2 trap ranging from 0,1 to 750 nM, followed by detection of the ligand-receptor complex using a horseradish peroxidase (HRP)-conjugated antibody against the mouse Fc domain of VEGFR1/R2 trap. Luminescence was quantified at optical density (OD) 450 nm using a by spectrophotometer (Thermo ScientificMultiskan GO, Finland).

Chain of single chain VEGF^165 dimer (scVEGF^165) (P49151 other isoform, or with tags, fused parts or gaps): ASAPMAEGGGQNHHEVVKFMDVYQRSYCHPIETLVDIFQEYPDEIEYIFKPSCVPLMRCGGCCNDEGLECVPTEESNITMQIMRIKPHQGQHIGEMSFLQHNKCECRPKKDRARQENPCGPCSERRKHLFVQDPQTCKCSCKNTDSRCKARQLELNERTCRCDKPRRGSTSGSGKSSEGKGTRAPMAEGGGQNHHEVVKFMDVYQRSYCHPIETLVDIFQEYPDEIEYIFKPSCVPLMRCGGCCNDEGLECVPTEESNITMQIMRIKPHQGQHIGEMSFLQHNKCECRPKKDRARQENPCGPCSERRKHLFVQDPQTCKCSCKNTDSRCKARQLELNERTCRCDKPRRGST
Chain of sFlt-1 (soluble splice variant of VEGF receptor 1) in human serum (human) (P17948 other isoform, or with tags, fused parts or gaps mutant): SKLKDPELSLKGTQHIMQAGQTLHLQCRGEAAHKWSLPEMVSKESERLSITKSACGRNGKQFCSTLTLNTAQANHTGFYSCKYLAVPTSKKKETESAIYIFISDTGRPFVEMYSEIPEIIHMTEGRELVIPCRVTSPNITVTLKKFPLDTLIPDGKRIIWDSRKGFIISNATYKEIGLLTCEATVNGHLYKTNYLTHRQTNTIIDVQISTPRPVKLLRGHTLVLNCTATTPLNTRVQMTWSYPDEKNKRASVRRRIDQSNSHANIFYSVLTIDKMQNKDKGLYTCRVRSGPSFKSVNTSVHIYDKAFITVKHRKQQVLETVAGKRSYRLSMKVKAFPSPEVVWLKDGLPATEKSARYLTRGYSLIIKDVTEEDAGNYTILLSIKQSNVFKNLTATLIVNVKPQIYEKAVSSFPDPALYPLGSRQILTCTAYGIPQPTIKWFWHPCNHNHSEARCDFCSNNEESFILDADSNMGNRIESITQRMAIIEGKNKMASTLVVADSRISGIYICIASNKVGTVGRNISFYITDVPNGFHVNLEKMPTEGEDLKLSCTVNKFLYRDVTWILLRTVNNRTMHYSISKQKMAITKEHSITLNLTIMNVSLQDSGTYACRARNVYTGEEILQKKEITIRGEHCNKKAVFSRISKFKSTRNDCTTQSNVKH
T1 sequence (P17948 other isoform, or with tags, fused parts or gaps mutant): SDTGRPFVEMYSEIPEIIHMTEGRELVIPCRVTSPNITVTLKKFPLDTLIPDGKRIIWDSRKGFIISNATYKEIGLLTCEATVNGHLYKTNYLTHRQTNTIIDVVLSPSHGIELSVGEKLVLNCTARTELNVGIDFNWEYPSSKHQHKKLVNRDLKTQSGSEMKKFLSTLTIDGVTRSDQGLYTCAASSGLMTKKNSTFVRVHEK

Molecule	PIGF release (free PIGF in serum after against before the column) [1]	PIGF release (free PIGF in serum after against before the column), median [1]	VEGF release (free VEGF in serum after against before the column) [1]	VEGF release (free VEGF in serum after against before the column), median [1]	reduction of sFlt-1 in a single run [2]	reduction of sFlt-1 in a single run [3]	sFlt-1 reduction (mean of 10 patient samples) [4]	sFlt-1 reduction (median of 10 patient samples) [4]	reduction of sFlt-1 in a single passage [3]	fold higher affinity compared to moPIGF [5]
single chain VEGF^165 dimer (scVEGF^165) (from UniProt P49151 27-190) (ligand)	20 fold	14.6 fold	9.07 fold	8.74 fold	86.2%	89.9%	88%	92.2%		
monomeric PIGF (moPIGF) (ligand, UniProt P49763-2 19-149, looked up, not shown: small tags and cut ends) LPAVPPQQWALSAGNGSSEVEVVPFQEVWGRSYCRALERLVDVVSEYPSEVEHMFSPSCVSLLRCTGCCGDENLHCVPVETANVTMQLLKIRSGDRPSYVELTFSQHVRCECRPLREKMKPERCGDAVPRR									46.2%	
monomeric wildtype VEGF^165 (moVEGF^165) (ligand, human, UniProt P15692-4 27-191, looked up, mature; Expressed from a monomeric construct in HEK293T cells; not shown: N-terminal Strep tag from the expression vector) APMAEGGGQNHHEVVKFMDVYQRSYCHPIETLVDIFQEYPDEIEYIFKPSCVPLMRCGGCCNDEGLECVPTEESNITMQIMRIKPHQGQHIGEMSFLQHNKCECRPKKDRARQENPCGPCSERRKHLFVQDPQTCKCSCKNTDSRCKARQLELNERTCRCDKPRR									77.2%	2.6 fold
